Data taken from patent US20090149389A1 (PURDUE RESEARCH FOUNDATION, published 2009).

Assays:
Assay in all cases: cell-based or functional assay
Abl (h) = Abl (h) (human (h), UniProt P00519 27-1130, limits assumed)
Aurora-A (h) = target: T1, Aurora-A (h) (human (h), UniProt O14965 1-403)
T1 sequence (looked up): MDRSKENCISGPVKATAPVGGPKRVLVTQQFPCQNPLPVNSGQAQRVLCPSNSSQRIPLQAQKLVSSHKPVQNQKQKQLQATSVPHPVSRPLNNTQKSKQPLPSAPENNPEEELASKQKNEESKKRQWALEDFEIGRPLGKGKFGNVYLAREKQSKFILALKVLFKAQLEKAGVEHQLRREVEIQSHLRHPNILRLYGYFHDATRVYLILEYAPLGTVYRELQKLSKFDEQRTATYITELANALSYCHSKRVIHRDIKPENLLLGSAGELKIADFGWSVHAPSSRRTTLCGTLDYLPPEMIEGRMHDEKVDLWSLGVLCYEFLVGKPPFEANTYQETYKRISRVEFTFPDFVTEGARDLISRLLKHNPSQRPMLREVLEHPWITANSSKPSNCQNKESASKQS

cKit (h) = cKit (h) (human (h), UniProt P10721 544-976, limits assumed)
EphA2 (h) = target: T2, EphA2 (h) (human (h), UniProt P29317 591-976, limits assumed)
T2 sequence (looked up): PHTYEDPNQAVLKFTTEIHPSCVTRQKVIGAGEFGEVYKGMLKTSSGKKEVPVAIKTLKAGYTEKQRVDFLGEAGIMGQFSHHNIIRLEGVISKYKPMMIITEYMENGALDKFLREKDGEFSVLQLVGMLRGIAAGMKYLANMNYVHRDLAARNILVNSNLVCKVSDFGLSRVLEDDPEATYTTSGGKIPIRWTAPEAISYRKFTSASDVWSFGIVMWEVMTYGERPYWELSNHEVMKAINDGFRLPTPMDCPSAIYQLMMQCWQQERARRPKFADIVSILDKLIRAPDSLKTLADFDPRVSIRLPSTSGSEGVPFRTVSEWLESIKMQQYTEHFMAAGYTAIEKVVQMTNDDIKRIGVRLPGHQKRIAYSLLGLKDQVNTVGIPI

KDR (tl) = KDR (tl) (UniProt P35968 790-1356, limits assumed)
MAPKAP-K3 (h) = MAPKAP-K3 (h) (human (h), UniProt Q16644 1-382, limits assumed)
MKK4 (m) = target: T3, MKK4 (m) (mouse (m), UniProt P47809 35-397, limits assumed)
T3 sequence (looked up): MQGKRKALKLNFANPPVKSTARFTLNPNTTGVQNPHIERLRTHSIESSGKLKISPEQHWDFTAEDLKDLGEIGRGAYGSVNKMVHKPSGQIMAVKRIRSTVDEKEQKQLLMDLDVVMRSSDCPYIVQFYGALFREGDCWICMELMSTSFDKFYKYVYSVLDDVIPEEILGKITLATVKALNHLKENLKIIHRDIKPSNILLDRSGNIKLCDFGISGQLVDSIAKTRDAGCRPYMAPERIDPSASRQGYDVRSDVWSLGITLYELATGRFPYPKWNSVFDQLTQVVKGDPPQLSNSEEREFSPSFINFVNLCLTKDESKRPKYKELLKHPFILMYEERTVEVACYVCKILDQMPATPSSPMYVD

PKA (h) = PKA (h) (human (h), UniProt P17612 1-351)
PKB β (h) = PKB β (h) (human (h), UniProt P31751 1-481, limits assumed)
PKG1β (h) = target: T4, PKG1β (h) (human (h), UniProt Q13976-2 1-686)
T4 sequence (looked up): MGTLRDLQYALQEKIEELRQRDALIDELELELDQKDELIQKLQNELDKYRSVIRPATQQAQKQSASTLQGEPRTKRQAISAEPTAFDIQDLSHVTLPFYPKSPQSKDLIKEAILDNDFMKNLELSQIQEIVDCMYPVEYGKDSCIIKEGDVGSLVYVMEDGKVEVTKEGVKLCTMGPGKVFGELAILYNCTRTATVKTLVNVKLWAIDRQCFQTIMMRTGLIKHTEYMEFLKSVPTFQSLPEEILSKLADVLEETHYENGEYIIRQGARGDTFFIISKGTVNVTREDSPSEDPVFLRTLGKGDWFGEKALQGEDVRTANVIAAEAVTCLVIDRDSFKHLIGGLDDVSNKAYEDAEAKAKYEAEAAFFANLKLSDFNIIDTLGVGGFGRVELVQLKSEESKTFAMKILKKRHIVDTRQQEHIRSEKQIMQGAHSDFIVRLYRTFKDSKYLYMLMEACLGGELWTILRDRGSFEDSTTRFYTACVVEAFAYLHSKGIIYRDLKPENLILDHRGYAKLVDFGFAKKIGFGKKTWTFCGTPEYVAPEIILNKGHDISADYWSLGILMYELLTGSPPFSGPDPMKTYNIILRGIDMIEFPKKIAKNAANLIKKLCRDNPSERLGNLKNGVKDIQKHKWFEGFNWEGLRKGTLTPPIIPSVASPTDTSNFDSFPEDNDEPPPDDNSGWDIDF

ROCK-1 (h) = ROCK-1 (h) (human (h), UniProt Q13464 17-535, limits assumed)
Syk (h) = Syk (h) (human (h), UniProt P43405 1-635)
Tie2 (h) = Tie2 (h) (human (h), UniProt Q02763 771-1124, limits assumed)
Tie2 (h), sequence (Q02763 771-1124 limits assumed): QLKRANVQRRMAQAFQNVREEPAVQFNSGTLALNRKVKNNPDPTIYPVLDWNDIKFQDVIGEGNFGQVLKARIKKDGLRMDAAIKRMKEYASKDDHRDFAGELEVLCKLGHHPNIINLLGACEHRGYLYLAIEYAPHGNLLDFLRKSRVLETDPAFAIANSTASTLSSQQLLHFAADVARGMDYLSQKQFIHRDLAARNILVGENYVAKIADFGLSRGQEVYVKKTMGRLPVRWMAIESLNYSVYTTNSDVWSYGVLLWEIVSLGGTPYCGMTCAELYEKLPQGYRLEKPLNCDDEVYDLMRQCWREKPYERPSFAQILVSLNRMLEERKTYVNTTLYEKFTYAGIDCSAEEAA

MAPKAP-K3 (h), sequence (Q16644 whole entry): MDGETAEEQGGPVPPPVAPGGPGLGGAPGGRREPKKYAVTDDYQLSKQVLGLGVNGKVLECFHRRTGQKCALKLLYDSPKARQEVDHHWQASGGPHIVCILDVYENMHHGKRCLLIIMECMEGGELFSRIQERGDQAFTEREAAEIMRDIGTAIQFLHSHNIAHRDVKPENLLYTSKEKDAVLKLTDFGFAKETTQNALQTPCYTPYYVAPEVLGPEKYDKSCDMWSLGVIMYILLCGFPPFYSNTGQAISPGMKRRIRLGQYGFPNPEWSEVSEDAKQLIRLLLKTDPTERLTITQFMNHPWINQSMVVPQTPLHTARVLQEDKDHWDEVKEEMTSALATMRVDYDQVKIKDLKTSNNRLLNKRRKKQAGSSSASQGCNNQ
KDR (tl), sequence (P35968 790-1356 limits assumed): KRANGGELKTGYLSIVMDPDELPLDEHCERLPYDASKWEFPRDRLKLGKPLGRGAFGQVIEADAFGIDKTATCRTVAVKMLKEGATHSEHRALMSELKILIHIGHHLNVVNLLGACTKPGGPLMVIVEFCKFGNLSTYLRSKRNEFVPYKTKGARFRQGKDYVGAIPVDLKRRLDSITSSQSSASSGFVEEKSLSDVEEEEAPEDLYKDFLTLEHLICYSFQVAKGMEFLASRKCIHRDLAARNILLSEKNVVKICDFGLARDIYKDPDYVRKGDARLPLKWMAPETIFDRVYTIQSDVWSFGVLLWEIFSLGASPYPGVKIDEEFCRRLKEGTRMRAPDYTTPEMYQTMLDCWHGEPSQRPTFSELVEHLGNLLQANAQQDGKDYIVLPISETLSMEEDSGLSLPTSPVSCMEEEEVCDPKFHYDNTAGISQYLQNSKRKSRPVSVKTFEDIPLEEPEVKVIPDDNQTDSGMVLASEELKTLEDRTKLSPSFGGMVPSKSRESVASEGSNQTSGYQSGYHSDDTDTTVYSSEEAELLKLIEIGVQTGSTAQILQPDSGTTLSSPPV
PKB β (h), sequence (P31751 whole entry): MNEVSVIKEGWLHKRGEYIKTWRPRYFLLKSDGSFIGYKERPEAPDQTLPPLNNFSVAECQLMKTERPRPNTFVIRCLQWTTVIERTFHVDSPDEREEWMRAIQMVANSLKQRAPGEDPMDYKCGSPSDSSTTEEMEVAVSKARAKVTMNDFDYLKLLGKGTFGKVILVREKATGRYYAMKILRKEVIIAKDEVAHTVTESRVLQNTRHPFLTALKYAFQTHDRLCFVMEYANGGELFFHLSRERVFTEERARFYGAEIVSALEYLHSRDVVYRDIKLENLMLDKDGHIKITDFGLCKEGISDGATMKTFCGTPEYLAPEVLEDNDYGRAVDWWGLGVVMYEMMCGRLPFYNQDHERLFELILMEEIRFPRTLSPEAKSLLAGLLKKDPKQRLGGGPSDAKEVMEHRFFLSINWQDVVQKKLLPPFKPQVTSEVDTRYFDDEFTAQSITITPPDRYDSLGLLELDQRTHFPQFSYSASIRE
cKit (h), sequence (P10721 544-976 limits assumed): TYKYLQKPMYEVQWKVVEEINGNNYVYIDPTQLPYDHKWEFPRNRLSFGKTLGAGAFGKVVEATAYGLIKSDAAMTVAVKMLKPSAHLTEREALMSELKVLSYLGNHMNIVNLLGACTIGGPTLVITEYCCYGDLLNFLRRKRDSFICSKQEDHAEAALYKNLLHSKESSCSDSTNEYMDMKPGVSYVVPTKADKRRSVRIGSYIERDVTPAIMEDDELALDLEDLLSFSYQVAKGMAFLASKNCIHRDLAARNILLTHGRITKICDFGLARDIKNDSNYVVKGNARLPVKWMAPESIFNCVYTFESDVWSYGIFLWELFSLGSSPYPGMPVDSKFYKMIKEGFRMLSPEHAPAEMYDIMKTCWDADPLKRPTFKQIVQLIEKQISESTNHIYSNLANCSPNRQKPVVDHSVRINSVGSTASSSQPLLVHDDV
Abl (h), sequence (P00519 27-1130 limits assumed): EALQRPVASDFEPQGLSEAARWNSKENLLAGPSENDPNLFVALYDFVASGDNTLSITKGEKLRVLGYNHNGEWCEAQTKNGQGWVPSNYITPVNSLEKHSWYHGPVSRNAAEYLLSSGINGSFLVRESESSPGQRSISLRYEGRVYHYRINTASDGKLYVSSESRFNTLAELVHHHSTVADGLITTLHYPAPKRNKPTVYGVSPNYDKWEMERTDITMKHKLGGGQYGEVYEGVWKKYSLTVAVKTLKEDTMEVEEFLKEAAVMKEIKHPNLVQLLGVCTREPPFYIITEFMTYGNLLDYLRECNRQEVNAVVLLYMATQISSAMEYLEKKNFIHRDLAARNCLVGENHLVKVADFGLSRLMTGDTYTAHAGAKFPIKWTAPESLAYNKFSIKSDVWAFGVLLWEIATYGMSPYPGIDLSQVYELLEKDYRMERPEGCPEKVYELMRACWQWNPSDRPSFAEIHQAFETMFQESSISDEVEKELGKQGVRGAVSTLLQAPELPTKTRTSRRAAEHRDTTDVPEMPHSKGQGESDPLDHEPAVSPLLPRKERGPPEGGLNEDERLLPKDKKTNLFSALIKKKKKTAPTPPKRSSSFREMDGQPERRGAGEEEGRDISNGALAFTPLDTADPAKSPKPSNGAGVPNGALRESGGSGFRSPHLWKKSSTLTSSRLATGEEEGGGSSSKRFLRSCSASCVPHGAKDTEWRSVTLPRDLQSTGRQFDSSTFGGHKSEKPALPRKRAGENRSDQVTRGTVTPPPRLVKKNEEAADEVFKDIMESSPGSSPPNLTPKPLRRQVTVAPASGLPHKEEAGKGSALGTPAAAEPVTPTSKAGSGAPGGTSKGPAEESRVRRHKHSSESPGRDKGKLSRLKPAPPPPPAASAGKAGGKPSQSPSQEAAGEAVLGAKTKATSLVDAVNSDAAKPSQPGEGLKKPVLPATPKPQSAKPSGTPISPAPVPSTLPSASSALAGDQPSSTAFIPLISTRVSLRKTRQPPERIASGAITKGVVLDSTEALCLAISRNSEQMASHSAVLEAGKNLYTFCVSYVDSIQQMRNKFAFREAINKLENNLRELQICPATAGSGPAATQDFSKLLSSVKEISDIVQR
ROCK-1 (h), sequence (Q13464 17-535 limits assumed): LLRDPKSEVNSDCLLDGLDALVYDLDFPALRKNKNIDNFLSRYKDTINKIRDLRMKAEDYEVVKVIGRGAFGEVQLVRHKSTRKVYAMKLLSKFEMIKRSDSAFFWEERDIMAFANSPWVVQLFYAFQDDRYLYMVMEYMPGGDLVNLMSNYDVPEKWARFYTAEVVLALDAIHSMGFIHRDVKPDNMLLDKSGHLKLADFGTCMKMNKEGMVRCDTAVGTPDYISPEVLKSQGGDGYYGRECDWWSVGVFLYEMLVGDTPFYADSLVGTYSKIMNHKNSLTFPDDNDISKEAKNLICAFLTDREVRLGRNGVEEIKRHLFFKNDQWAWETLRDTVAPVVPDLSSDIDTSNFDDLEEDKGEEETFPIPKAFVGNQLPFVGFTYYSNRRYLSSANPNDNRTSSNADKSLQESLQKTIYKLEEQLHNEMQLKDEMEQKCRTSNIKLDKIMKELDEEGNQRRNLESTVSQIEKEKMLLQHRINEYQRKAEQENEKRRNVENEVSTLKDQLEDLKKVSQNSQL

With KAFAKLAARLYRKALARQLGVAA the “Profile-1 @ = 100 µm (kinase profiler assay)” value (from here on “Profile-1 @ = 100 µm”) (Abl (h)) was 55, the “Profile-1 @ = 100 µm” value (Aurora-A (h)) was 60 and the “Profile-1 @ = 100 µm” value (cKit (h)) was 31. For the same binder, the “Profile-1 @ = 100 µm” value (EphA2 (h)) was 22, the “Profile-1 @ = 100 µm” value (KDR (tl)) was 56 and the “Profile-1 @ = 100 µm” value (MAPKAP-K3 (h)) was 17. The “Profile-1 @ = 100 µm” value (MKK4 (m)) was 114, the “Profile-1 @ = 100 µm” value (PKA (h)) was 103 and the “Profile-1 @ = 100 µm” value (PKB β (h)) was 28. For the same binder, the “Profile-1 @ = 100 µm” value (PKG1β (h)) was 24, the “Profile-1 @ = 100 µm” value (ROCK-1 (h)) was 29 and the “Profile-1 @ = 100 µm” value (Syk (h)) was 4. The “Profile-1 @ = 100 µm” value (Tie2 (h)) was 8.
